Here are results for 1 substance from US9109032.

This assay deals with EphA3 antigen (UniProt P29320). As to the kind of experiment: ELISA. Background: In an ELISA, binding on a coated surface is turned into a signal by an enzyme label.
UniProt P29320, sequence (P29320 21-541 limits assumed): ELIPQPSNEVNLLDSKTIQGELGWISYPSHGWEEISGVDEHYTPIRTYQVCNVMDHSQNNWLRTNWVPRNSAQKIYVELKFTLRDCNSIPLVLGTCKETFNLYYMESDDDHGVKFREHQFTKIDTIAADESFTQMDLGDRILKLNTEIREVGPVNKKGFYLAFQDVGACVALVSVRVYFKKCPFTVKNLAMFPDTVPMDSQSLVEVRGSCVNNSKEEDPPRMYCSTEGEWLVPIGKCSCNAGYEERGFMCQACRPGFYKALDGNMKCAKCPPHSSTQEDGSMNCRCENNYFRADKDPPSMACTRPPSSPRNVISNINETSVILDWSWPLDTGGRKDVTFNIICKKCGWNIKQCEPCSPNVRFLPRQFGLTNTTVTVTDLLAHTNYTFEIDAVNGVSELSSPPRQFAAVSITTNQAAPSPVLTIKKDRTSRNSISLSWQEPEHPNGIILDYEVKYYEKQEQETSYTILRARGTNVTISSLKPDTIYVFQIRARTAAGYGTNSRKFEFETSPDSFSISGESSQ

In the case of monoclonal antibody IIIA4, the AFFINITY stood at 2.5 nM.
